Data published in article PMC2702692.

Target: BSA-glycopolymer conjugate 10 (glycoprotein mimic 10) (bovine) (UniProt P02769)
Test: SPR

Chain of UniProt P02769 (P02769 25-607): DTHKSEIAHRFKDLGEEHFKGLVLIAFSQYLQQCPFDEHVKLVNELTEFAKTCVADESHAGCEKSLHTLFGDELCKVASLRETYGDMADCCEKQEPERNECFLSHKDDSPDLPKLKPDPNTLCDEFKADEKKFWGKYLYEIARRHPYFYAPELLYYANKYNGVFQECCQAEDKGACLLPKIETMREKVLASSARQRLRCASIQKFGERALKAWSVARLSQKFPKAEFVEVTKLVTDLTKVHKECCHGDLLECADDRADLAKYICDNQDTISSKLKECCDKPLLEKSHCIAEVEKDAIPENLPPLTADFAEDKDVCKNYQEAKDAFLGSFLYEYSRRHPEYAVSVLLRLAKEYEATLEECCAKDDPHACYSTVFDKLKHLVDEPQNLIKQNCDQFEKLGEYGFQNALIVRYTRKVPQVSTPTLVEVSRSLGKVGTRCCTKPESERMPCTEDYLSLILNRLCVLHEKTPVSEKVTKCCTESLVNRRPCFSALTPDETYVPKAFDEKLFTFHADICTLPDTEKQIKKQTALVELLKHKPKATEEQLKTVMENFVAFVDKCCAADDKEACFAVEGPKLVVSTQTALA

Substance: recombinant rat mannose-binding lectin (MBL) (from UniProt P19999 18-238) (natural protein)
- koff: 0.00073 s⁻¹
- kon: 120000 M⁻¹ s⁻¹
